The target of this assay is brr2_yeast BRR2 (UniProt P32639).
Chain of brr2_yeast BRR2 (P32639 whole entry): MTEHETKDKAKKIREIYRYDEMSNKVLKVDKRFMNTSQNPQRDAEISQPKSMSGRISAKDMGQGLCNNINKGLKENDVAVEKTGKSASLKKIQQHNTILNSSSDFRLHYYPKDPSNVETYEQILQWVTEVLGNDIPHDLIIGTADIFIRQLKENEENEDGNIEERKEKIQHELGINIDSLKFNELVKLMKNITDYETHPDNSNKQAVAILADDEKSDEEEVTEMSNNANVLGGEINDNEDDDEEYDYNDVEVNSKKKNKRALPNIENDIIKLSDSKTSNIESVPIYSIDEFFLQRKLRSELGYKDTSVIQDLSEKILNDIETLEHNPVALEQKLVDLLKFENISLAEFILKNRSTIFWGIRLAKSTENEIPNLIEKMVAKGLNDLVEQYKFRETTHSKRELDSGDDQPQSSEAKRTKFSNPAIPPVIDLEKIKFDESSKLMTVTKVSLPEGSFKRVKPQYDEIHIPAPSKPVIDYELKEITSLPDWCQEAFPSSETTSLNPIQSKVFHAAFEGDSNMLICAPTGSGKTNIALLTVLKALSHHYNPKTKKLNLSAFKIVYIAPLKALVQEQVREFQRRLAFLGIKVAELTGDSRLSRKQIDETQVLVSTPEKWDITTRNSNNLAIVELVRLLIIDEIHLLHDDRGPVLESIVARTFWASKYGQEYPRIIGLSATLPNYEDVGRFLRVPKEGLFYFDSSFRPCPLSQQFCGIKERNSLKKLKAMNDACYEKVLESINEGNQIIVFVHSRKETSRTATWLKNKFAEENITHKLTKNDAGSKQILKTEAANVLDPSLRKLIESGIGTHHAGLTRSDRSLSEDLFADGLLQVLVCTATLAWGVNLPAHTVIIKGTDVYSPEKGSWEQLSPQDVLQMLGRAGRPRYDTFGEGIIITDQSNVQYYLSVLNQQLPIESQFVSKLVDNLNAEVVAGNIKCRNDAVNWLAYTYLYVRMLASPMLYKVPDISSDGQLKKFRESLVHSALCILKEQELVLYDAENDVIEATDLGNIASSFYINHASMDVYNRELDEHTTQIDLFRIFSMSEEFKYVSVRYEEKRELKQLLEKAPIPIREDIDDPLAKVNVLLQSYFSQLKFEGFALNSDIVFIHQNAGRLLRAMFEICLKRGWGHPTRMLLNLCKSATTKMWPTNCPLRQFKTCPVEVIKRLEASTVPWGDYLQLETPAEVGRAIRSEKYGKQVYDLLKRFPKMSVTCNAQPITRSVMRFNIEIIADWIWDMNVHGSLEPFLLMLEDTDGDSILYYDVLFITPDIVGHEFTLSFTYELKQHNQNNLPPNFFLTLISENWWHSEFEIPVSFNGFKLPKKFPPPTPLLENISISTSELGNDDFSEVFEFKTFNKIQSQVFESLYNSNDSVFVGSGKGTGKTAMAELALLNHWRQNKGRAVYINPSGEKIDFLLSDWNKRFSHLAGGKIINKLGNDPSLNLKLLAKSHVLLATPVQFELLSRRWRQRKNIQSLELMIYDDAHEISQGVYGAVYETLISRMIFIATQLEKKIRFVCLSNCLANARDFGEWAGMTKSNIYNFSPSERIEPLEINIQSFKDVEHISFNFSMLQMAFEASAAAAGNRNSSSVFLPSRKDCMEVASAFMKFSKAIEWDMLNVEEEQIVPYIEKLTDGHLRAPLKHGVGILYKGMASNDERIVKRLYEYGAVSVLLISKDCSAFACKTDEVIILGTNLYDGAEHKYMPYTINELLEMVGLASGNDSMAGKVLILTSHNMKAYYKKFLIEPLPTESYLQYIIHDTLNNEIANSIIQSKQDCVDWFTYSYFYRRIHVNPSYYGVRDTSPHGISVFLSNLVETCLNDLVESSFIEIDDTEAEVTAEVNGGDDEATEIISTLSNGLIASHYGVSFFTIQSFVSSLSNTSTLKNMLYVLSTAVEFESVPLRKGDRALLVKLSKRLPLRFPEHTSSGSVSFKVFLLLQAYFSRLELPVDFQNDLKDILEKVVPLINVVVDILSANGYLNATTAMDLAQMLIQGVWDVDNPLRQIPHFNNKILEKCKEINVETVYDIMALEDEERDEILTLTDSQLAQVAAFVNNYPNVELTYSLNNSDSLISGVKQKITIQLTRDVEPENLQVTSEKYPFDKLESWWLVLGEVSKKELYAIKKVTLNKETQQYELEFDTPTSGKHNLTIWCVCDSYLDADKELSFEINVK
Chain of Pre-mRNA-splicing factor 8 (Saccharomyces cerevisiae), P33334 F2392L (P33334 whole entry F2392L): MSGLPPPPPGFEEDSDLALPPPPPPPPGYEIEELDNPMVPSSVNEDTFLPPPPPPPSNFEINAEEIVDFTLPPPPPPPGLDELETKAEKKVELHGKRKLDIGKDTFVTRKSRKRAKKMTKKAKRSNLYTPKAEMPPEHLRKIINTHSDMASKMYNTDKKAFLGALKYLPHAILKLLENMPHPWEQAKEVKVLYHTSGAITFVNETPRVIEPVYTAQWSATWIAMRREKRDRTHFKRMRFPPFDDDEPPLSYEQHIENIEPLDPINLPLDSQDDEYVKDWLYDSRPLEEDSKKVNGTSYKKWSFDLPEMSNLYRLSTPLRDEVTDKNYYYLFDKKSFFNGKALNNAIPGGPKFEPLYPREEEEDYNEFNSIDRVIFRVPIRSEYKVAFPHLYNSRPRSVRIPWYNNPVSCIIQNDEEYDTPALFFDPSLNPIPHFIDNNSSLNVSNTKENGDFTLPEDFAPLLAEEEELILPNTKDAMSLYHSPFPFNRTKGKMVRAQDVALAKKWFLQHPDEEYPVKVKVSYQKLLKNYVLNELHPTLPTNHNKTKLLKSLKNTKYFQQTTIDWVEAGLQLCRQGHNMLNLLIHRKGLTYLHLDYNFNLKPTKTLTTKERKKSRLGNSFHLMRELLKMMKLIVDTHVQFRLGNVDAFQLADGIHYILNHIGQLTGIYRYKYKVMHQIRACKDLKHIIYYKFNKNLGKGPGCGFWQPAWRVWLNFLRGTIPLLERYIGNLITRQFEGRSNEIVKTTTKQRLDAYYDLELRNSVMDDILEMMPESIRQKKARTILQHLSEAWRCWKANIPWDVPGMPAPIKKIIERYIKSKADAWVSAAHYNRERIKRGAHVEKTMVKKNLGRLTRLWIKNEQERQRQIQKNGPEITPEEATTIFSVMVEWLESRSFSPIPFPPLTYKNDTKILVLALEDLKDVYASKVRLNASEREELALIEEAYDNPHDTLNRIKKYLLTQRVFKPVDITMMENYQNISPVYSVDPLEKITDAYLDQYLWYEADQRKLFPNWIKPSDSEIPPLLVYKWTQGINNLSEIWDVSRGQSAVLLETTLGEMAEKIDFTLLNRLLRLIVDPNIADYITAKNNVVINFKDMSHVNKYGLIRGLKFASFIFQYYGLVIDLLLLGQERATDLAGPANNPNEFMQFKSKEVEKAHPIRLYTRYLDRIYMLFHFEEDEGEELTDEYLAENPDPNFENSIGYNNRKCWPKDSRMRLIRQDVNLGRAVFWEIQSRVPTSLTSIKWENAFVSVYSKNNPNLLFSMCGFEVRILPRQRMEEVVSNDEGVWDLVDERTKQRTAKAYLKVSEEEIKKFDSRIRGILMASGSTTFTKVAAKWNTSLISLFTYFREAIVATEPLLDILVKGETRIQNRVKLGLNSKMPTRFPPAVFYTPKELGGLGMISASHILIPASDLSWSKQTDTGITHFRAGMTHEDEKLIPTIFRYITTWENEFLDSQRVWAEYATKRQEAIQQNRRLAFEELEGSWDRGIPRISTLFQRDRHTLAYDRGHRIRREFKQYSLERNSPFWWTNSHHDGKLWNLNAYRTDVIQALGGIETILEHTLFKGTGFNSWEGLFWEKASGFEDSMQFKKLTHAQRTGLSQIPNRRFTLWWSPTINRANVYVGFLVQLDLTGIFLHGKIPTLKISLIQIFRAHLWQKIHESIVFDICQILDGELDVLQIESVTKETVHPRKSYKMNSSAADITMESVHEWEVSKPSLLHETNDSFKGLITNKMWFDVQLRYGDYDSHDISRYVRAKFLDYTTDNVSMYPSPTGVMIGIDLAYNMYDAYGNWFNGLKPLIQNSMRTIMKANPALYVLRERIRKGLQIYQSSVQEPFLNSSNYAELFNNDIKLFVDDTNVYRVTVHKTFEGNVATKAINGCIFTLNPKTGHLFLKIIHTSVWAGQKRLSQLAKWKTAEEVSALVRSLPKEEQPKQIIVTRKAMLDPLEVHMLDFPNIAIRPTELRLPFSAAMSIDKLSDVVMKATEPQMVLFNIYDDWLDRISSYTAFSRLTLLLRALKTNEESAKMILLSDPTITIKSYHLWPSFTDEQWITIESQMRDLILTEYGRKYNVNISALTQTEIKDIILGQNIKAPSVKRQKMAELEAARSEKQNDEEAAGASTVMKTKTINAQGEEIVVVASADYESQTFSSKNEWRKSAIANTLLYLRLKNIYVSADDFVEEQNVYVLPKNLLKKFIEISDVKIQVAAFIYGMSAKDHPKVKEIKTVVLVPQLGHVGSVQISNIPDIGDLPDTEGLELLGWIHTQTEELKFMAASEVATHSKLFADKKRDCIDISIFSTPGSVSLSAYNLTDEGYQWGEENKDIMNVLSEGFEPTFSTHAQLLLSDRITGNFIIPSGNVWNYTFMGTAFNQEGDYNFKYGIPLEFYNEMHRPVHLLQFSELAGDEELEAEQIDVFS
“Pre-mRNA-splicing factor 8 (Saccharomyces cerevisiae), P33334 F2382L”: the “effect of a mutation on the interaction” value was “decreasing interaction”.
To “Pre-mRNA-splicing factor 8 (Saccharomyces cerevisiae), P33334 F2392L” belongs “disrupting interaction”; to “Pre-mRNA-splicing factor 8 (Saccharomyces cerevisiae), P33334 H2387P”, “disrupting interaction”; to “Pre-mRNA-splicing factor 8 (Saccharomyces cerevisiae), P33334 H2387R”, “disrupting interaction”.
On to “Pre-mRNA-splicing factor 8 (Saccharomyces cerevisiae), P33334 P2379T”, for which the “effect of a mutation on the interaction” value is recorded as “decreasing interaction”.
“Pre-mRNA-splicing factor 8 (Saccharomyces cerevisiae), P33334 R2388G”: the “effect of a mutation on the interaction” value was “disrupting interaction”.
The value for “Pre-mRNA-splicing factor 8 (Saccharomyces cerevisiae), P33334 R2388K” was “disrupting interaction”.

The values are drawn from IntAct's records for PubMed 17934474.
